From paper PMC3281020

What was measured:
[1] = tested on: Isw1a complex (TAP-purified via Ioc3-TAP, strain YTT1168) (yeast, strain YTT1168); test: magnetic tweezers; details: no ATP, end-tethered to glass and bead (1 um), TEM/EMSA: 20 mM (Methods: 10 mM) Tris-HCl pH 8.0, 30 mM KCl, 17.5 mM NaCl, 1 mM Hepes pH 7.6, 0.75% glycerol, 20 min at 30 C, 750 nM DNA in bp, CHD1 tweezers: …
[2] = tested on: Isw1a complex (TAP-purified via Ioc3-TAP, strain YTT1168) (yeast, strain YTT1168); test: TEM; details: no ATP, TEM/EMSA: 20 mM (Methods: 10 mM) Tris-HCl pH 8.0, 30 mM KCl, 17.5 mM NaCl, 1 mM Hepes pH 7.6, 0.75% glycerol, 20 min at 30 C, 750 nM DNA in bp, CHD1 tweezers: …
[3] = tested on: Isw1a complex (TAP-purified via Ioc3-TAP, strain YTT1168) (yeast, strain YTT1168); test: TEM, competition; details: TEM/EMSA: 20 mM (Methods: 10 mM) Tris-HCl pH 8.0, 30 mM KCl, 17.5 mM NaCl, 1 mM Hepes pH 7.6, 0.75% glycerol, 20 min at 30 C, 750 nM DNA in bp, CHD1 tweezers: …

Substance | Kd ([1]; F about 1 pN, tau_on 64 s, tau_off 69 s) [nM] | Kd ([1]; extrapolated to zero force, single nucleation complex) [nM] | binding signal (% unbound DNA) ([2]; 2 nM Isw1a) | binding signal (% unbound DNA) ([2]; 10 nM Isw1a) | binding signal (% unbound DNA) ([2]; 50 nM Isw1a) | binding signal (% unbound DNA) ([3]; 2 nM Isw1a, 1:1 mixture with scDNA) | binding signal (% unbound DNA) ([3]; 10 nM Isw1a, 1:1 mixture with scDNA) | binding signal (% unbound DNA) ([3]; 50 nM Isw1a, 1:1 mixture with scDNA) | binding signal (% unbound DNA) ([3]; 2 nM Isw1a, 1:1 mixture with linear DNA) | binding signal (% unbound DNA) ([3]; 10 nM Isw1a, 1:1 mixture with linear DNA) | binding signal (% unbound DNA) ([3]; 50 nM Isw1a, 1:1 mixture with linear DNA)
3.6 kbp tethered DNA (magnetic trap) | 1 | 0.001 |  |  |  |  |  |  |  |  | 
linear pBR322 EcoRV-SspI fragment, 3983 bp |  |  | 82 | 53 | 20 | 90 | 73 | 25 |  |  | 
pBR322 negatively supercoiled plasmid |  |  | 57 | 37 | 10 |  |  |  | 59 | 33 | 6
